Data taken from the DeepSol protein solubility set.

Test: soluble on expression in E. coli; label from the status in PepcDB or PDB records

Sequence: MSEILFINGKVRFPITIDPTVWIFDDRKVDLTTYFDETRENTSELETYLKNTSEHWDREIRDGAAFPPIQQSVKKYKKEQLITGTFGIPFHPFLANAEILEDATQVEIETVDHTMTLPLETVKNAILGFSKEGKPLKEDGPVHLYFNDGSNQQNPIRNIRKFTII
- soluble on expression in E. coli: not soluble

Sequence: MSAIPAEESDQLLIRPLGAGQEVGRSCIILEFKGRKIMLDCGIHPGLEGMDALPYIDLIDPAEIDLLLISHFHLDHCGALPWFLQKTSFKGRTFMTHATKAIYRWLLSDYVKVSNISADDMLYTETDLEESMDKIETINFHEVKEVAGIKFWCYHAGHVLGAAMFMIEIAGVKLLYTGDFSRQEDRHLMAAEIPNIKPDILIIESTYGTHIHEKREEREARFCNTVHDIVNRGGRGLIPVFALGRAQELLLILDEYWQNHPELHDIPIYYASSLAKKCMAVYQTYVNAMNDKIRKQININNPFVFKHISNLKSMDHFDDIGPSVVMASPGMMQSGLSRELFESWCTDKRNGVIIAGYCVEGTLAKHIMSEPEEITTMSGQKLPLKMSVDYISFSAHTDYQQTSEFIRALKPPHVILVHGEQNEMARLKAALIREYEDNDEVHIEVHNPRNTEAVTLNFR
- soluble on expression in E. coli: soluble

Sequence: MSDKHINLVIVTGMSGAGKTVAIQSFEDLGYFTIDNMPPALVPKFLELIEQTNENRRVALVVDMRSRLFFKEINSTLDSIESNPSIDFRILFLDATDGELVSRYKETRRSHPLAADGRVLDGIRLERELLSPLKSMSQHVVDTTKLTPRQLRKTISDQFSEGSNQASFRIEVMSFGFKYGLPLDADLVFDVRFLPNPYYQVELREKTGLDEDVFNYVMSHPESEVFYKHLLNLIVPILPAYQKEGKSVLTVAIGCTGGQHRSVAFAHCLAESLATDWSVNESHRDQNRRKETVNRS
- soluble on expression in E. coli: not soluble

Sequence: MGSDKIHHHHHHMKFIHTSDWHIGRQLHNQSLLDDQAFVLEQIIALADEHKVDAVIVAGDIYDRSIPPANAVALLDDVLNRLVHDLGLQVIMIAGNHDGHERLGFAAKQMAASGLHIIGPLSADIHPITLSSSSGDVVFYPLPYAEPATVRQVFECEAASHEAAMTLLLEQVRQHDSQGLPKVVISHCFLDGGSESESERPLSIGGADKISPTLFTEFDYVALGHLHGPQYKGAEHVRYSGSILKYSFSEQHQHKSVTLVELSAQTPIKIRLLPLTSIRDVRILEGELATLLVQGKTDIKREDYLMVRLLDKHAILDAMGKLRAVYPNVLHLERTGLMAGQQQVTLSRDHIKKGEMDMFRDFFSQVSGESLTQAQQAVMDELLTKLHNEERQA
- soluble on expression in E. coli: not soluble

Sequence: MGSDKIHHHHHHMSIPNAIKHTQTDSALSNIALSNTRDHLLTTGYKLIAQKGFTAVGIKQILDTAGVPKGSFYHYFASKEAFGEAIISHYFTQYKQRLNIIGSQDVSAQQKLYDYFQNWYDTQQSGCDHEKCLVVKLSAEVSDMSEPMRKVLHTGYQQTITWLATQIKAGWVDGSVPHPANVAAESMAKRWYFAWLGASLVTKISQTDTPLAEAWLMTTTAMGR
- soluble on expression in E. coli: not soluble

Sequence: MGSDKIHHHHHHLTRREVVGLKLGDLMPRDLLKQELFVQDLKSHINDNVEIILKIRSKKLQETKDSKKFLIMTLEDRTGTVRAVDWYNAELNDQRLKEGNVVRVKGRVVFFENRIQINVDNDYGAIKILKSDEYDYTKFVAQSKKDLEILKKKLFVLLDQIKDQHYKKLLKAFFENKEFSEKFFRSPAGMRVHHAYIGGLLEHSVTVAEICKEISKYYSLDRDLLITGALLHDVGKVEEYRITESGIEVTTEGELKGHIAIGAAMVREMAKKLSIPEHKILELEHIILSHHGELEWGSPVVPKTIEALIVHHVENLDSKIARFIEVMESSESNQGWTEYDRNLGRRIFLRGGGTIVSLTV
- soluble on expression in E. coli: not soluble

Sequence: MSGKNEADSKDTGWEQIKDKGKIVVATSGTLYPTSYHDTDSGSDKLTGYEVEVVREAAKRLGLKVEFKEMGIDGMLTAVNSGQVDAAANDIDVTKDREEKFAFSTPYKYSYGTAIVRKDDLSGIKTLKDLKGKKAAGAATTVYMEVARKYGAKEVIYDNATNEQYLKDVANGRTDVILNDYYLQTLALAAFPDLNITIHPDIKYMPNKQALVMKKSNAALQKKMNEALKEMSKDGSLTKLSKQFFNKADVSKKIDADVQDVDLLEHHHHHH
- soluble on expression in E. coli: soluble

Sequence: MGSDKIHHHHHHMSLVCSVIFIHHAFNANILDKDYAFSDGEILMVDNAVRTHFEPYERHFKEIGFNENTIKKYLQCTNIQTVTVPVPAKFLRASNVPTGLLNEMIAYLNSEERNHHNFSELLLFSCLSIFAACKGFITLLTNGVLSVSGKVRNIVNMKLAHPWKLKDICDCLYISESLLKKKLKQEQTTFSQILLDARMQHAKNLIRVEGSVNKIAEQCGYASTSYFIYAFRKHFGNSPKRVSKEYRCQRHTGMNTGNTMSALAI
- soluble on expression in E. coli: not soluble

Sequence: MSLIEIPGFIDLHTHTRYPDNDKFPFIDIDDSAINGGFSTILAMPNSEIPIDSIKNLRIAQEIDKKLKTKVHRVGSLTKNLEGKELVNYKEFVENGITIFSDDGKSLINDHLADEAFKQISKLGGAVFQHCEKSCHSKPGDIAPPNSNSDLILINNDEELEVLERDLSLSEKYGTRYHAQHLSTFESVELIKKAKQEGLPVTAEVTPHHILLNNENLDTNNGLFKMYPPLRTEKDREGLVEGLQSEIIDVIATDHAPHKAETKNVPFKDANRGVVGLNEGHHHHHH
- soluble on expression in E. coli: soluble

Sequence: GPGSMLCRVHLRADPHSSSLHNVVHATNAMAAVNQLLGPERSVFVATEVQPQGVGHSCHGIQLPEDAIIAENVRTSMLVPKVRLHILGDAERGIPPVQQVVIWGYETCGCILQTADDLLTHGVRVAVLVDGCASRTKEVHDTAVLQISRWDGLMVTTVPSAVMQLTRSDARFVKPIIQIMKKFAADWCTTQPRPELRDRGGSGDGEKATAASDARAVPSALATATAADAILAANSACCRTEH
- soluble on expression in E. coli: not soluble

Sequence: MAIMRVNPTRMELTRLKKRLQVARRGHKLLKDKLDELMKQFLDLVRKNKELREKVEEMLMKAHQDFLIARAVMSSEGLEAALMLPKQSISLDVSTQNIMSVEVPVLKFTTSSSDESDIYPYGFASTSGELDGAILTLSKVLPYMLELAQMEKSSQLLAQEIEKTRRRVNALEYVMIPQLTETIKYISMKLDENERGNITRLMKVKDMMLEQAHNFKEKLNEA
- soluble on expression in E. coli: soluble

Sequence: MAHHHHHHMGTLEAQTQGPGSMDFRIGQGYDVHQLVPGRPLIIGGVTIPYERGLLGHSDADVLLHAITDALFGAAALGDIGRHFSDTDPRFKGADSRALLRECASRVAQAGFAIRNVDSTIIAQAPKLAPHIDAMRANIAADLDLPLDRVNVKAKTNEKLGYLGRGEGIEAQAAALVVREAAA
- soluble on expression in E. coli: soluble

Sequence: MLQEIPTTTPSLREARPCVLETERLTLRKPVLADVQAIASLANDRRVVEMTRRMPFPYTRDDAARFVTALPKSSDSVFLIEAEDLEPIGLVGVDWSDRDAPELGYWLGVQHWGNGYATEAARAVIDFTFEVHGAKQMISGARVINPASRNVLEKCGFQWTGVELHRFESIGSSTPVDCFRLTRGVWSSLKKWGTTKRRC
- soluble on expression in E. coli: not soluble

Sequence: MKKLAVKALLFIMGTMLYSAPTYEYRRELREGARGKWTNLRQHLNSGTRLEKELTKVDKQIDKKVNEIQEIEDLLFRIEQYKAANNIR
- soluble on expression in E. coli: not soluble

Sequence: MSHHHHHHAGIFTFEEPVTHVSESIGIMEVKVLRTSGARGNVIVPYKTIEGTARGGGEDFEDTCGELEFQNDEIVKIITIRIFDREEYEKECSFSLVLEEPKWIRRGMKGGFTITEEYDDKQPLTSKEEEERRIAEMGRPILGEHTKLEVIIEESYEFKSTVD
- soluble on expression in E. coli: soluble

Sequence: MVLPGNCSTSAALCMQFLTQLASVAIDQAYQPPQQPAYNPHEKLFVSYRSVPPPGSSPSSAAVPIRFSSYSSVGSNIRGLNSPTLHPGSIEPPLTPGNYRLYSMRFCPYAQRVLIYLAKKNIPVEVVNVNPDRSPNWYLPKSPIGRVPALEINGKVVWESNVIVEYLDELFPTNTILPRDAYEKAHQKILVERLSPIMNALFEFYGSSNNPQAQRQNDMNVHSALRNSENLLRDTFYGGRQPGYADYLMWPFLERLQLLTMSPNSQFRYFPGLHYPKIGAYIARMQNQPEVLGFCKHDFFLKKTGEKIW
- soluble on expression in E. coli: not soluble

Sequence: MRLLIITGISGAGKSLVVKYLEDIGFFCVDNLPPLLIGKFAEICLKSRGKISKVALVIDIRGGELFNDLVPELNALKESGIDYEILFLEASDQVLIKRYKESRRIHPLAPEGRLIKGIKTEREILSQIRKNATYIIDTSNLTPRQLKEEILAIFVEGRKFDGMIVNIISFGFKYGIPIECDLVFDVRFIPNPYYIESMKYKTGKDEEVRNYVMSFAETAEFMTKLKDLVDFLIPNYIKEGKSQLVIGVGCTGGRHRSVAISEALFSYLCGREHRVFIDHRDIDKDGRSNRR
- soluble on expression in E. coli: soluble

Sequence: MISVVIPAKDEVGNIGPLMKEICQALQGVTEFEILVVDDGSQDDTFGEVIHTAELMLCNAKAIRHERSTGQSTAISTGVLHARGQYIVTLDADGQNDPADIPAMLAQLPQIHAEHFCIAGYRKNRKDTAWKRFQSRFANKVRDALLHDGVPDTGCGLKLFPRETFLRMPYFDHMHRYIPALVRRMGGEVFISVVNHRDRQLGVSKYTAWNRVWVGIVDIMGVIWLGRRAKIAKVARSETRWHDLEHHHHHH
- soluble on expression in E. coli: soluble

Sequence: MGSDKIHHHHHHRWIPGSRDFDSWLVTLHAQLLAEVDYPRELRMAQVMTEGLAQHEALQSAPVTLRVPHFWPEHCSTNVLTMDYVEGHRAASPEVAALPQSARNELGKAMLQLFFAEVFDLGLVQTDPNFGNYLINDDGTELTLLDFGSVFELDETVRTALCDTIVAGLTNDETRLELALVALGCLKPGAGESAKATFKAFIRNLLEPLRPPEALPPEHLNAEGLYCWGHSELVNRTGQQVARSLTNREFAIPSSDFAMVARKLTGVFTFIAVLDAEFNGHDIAAPYLDEVTAGGET
- soluble on expression in E. coli: not soluble

Sequence: MGDILMHYVRKAHEHEVNEVVKYPHTITNTELEEILVSGEECTVLDVREAAEFAFGHIPSATSMPLGELESLVLDKTKQIYVVCRTGNRSDVACQMLKEKGYTNVKNVIPGMIEWQGNIENLEHHHHHH
- soluble on expression in E. coli: not soluble

Sequence: MLEANVYDNFNPNYYNISDFSMPNGKKEKRGLPIPKARCQVINYELWETGYLYTSSATLTVSVEVGDIVQILFPEVVPIEEALGKKKKLNLDMVYLVTDVDESNKATLKNYFWAMIESLDVPNAITKTTNFAIIDYLIDPNKNNLMSYGYFFNSSIFAGKATINRKAETSSAHDVAKRIFSKVQFQPTTTIQHAPSETDPRNLLFINFASRNWNRKRITTRVDIKQSVTMDTETIVERSAYNFAVVFVKNKATDDYTDPPKMYIAKNNGDVIDYSTYHGDGTDLPDVRTAKTLFYDRDDHGNPPELSTIKVEISPSTIVTRLIFNQNELLPLYVNDLVDIWYEGKLYSGYIADRVKTEFNDRLIFVESGDKPNVI
- soluble on expression in E. coli: soluble

Sequence: SNAMSGNGNAAATAEENSPKMRVIRVGTRKSQLARIQTDSVVATLKASYPGLQFEIIAMSTTGDKILDTALSKIGEKSLFTKELEHALEKNEVDLVVHSLKDLPTVLPPGFTIGAICKRENPHDAVVFHPKFVGKTLETLPEKSVVGTSSLRRAAQLQRKFPHLEFRSIRGNLNTRLRKLDEQQEFSAIILATAGLQRMGWHNRVGQILHPEECMYAVGQGALGVEVRAKDQDILDLVGVLHDPETLLRCIAERAFLRHLEGGCSVPVAVHTAMKDGQLYLTGGVWSLDGSDSIQETMQATIHVPAQHEDGPEDDPQLVGITARNIPRGPQLAAQNLGISLANLLLSKGAKNILDVARQLNDAH
- soluble on expression in E. coli: soluble

Sequence: MGSDKIHHHHHHMAAEALADEHLVMLAYRDPAIGDHIDVQKVRLPFRWEFDLPTIFSLVRLVWRKKIDILIPTKRKDYVLAGLVCRLTGAANILRLGIDRPLKNTPVQRLIYGWLADGIIVNADKIRRTLALSPWIDPDKVRVIYNGIDREKLEPDSVLPCKKPFSFTIGAAGALIPRKGFDYLIRSFARFSAGSNEITDAGLVIAGTGPERESLEKLAADLGISGRVRFTGHLTNPYPVMRACDLFVSASTSEGLANVLLESMALHCVPVSTLSGGADELIEDGRNGFLVRYGDEKRLAEIFSELYKNPGKIASVAANAHQTIMQRFSIELMRKDLFEFCSEINDRKKGT
- soluble on expression in E. coli: not soluble
